Values of other authors in PMC8773757.

Assays:
[1] = target: HIF-1α PAS-B (Homo sapiens) (UniProt Q16665)
[2] = target: CDC37 (Homo sapiens) (UniProt Q16543)
[3] = target: p300/CBP (Homo sapiens) (UniProt Q09472)
[4] = target: thymidylate synthase (Homo sapiens) (UniProt P04818)

Chain of UniProt Q09472 (Q09472 2-2414): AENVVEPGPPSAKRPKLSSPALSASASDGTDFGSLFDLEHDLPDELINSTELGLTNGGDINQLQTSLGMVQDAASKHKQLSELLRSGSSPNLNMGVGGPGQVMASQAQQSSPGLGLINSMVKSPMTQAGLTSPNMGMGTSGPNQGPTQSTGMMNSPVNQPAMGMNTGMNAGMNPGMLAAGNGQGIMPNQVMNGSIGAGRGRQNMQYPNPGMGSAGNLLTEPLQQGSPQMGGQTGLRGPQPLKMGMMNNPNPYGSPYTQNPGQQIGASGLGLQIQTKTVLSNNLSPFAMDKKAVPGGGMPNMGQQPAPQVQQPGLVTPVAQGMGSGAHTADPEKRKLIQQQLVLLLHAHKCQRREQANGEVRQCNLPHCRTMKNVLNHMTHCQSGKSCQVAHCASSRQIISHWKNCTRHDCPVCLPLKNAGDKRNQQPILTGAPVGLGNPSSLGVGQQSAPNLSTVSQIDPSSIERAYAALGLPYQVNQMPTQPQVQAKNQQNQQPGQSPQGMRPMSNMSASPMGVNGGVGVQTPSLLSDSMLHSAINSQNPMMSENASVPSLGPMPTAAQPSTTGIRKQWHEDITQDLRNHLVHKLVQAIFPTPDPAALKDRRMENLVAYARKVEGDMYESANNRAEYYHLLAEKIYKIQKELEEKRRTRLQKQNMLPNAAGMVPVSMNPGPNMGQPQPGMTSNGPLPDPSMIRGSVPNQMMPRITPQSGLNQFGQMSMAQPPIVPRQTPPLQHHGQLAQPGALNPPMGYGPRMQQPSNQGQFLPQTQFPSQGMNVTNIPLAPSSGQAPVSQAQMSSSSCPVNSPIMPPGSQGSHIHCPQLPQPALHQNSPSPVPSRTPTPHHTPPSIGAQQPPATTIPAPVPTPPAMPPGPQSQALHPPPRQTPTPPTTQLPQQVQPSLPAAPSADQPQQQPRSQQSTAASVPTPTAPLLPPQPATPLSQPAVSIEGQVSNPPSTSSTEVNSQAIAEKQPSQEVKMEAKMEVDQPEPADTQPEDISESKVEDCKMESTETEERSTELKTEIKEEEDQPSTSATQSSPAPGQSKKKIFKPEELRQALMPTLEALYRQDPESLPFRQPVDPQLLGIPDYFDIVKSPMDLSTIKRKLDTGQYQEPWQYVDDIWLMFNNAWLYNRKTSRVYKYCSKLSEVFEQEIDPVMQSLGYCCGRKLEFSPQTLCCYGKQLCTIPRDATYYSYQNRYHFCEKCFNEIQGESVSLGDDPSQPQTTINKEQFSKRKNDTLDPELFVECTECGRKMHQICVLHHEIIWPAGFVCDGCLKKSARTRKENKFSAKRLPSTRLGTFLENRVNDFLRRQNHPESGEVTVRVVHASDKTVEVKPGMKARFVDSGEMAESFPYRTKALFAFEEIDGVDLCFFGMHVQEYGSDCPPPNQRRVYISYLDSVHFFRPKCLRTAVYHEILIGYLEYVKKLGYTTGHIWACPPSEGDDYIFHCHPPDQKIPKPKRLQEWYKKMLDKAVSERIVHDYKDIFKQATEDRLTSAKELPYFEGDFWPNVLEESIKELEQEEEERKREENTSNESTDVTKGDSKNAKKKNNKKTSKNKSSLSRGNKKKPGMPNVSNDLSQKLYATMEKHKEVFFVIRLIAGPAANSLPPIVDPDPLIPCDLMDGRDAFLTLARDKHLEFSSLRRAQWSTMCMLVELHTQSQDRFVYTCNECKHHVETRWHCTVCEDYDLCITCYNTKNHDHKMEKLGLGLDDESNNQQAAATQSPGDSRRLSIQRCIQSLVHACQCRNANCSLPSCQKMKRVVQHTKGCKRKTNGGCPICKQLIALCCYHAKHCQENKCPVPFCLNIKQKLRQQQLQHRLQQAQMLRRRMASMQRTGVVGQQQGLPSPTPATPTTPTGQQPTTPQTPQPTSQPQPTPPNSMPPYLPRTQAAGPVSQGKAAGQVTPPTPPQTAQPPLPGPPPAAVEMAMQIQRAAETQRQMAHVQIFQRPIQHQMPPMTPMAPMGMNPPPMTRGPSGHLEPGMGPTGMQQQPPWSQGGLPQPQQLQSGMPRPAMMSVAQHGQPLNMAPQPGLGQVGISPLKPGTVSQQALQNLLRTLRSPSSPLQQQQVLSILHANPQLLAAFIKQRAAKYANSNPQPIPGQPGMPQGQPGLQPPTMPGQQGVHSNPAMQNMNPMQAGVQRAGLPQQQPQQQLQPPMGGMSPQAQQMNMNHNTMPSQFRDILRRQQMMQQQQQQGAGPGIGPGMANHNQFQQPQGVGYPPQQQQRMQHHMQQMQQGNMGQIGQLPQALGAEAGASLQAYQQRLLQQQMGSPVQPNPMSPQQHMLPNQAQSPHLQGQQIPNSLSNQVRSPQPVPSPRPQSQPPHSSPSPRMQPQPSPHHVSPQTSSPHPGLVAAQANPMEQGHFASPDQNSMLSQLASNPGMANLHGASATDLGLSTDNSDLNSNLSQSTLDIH
Chain of HIF-1α (Q16665 whole entry): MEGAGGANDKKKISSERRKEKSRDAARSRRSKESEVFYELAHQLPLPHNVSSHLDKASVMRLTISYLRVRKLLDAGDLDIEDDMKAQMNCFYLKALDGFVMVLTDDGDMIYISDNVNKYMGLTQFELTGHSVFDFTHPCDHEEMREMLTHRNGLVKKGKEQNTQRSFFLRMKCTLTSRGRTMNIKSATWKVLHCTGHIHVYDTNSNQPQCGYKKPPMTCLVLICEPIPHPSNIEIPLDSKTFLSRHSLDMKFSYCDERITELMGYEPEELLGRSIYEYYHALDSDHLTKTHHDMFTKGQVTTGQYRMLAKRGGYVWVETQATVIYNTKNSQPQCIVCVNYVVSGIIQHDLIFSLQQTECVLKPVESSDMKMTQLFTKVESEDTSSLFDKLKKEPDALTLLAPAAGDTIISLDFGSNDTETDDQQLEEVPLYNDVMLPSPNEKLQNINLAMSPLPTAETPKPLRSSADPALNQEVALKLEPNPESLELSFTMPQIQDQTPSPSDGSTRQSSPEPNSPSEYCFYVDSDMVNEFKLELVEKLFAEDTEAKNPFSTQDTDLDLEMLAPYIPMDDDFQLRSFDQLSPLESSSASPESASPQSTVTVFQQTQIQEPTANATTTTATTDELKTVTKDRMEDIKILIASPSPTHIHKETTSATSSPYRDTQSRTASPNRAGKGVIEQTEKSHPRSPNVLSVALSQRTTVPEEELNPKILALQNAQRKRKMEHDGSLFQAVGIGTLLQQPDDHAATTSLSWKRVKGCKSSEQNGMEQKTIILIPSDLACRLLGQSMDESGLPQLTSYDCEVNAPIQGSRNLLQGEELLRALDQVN
Chain of UniProt Q16543 (Q16543 2-378): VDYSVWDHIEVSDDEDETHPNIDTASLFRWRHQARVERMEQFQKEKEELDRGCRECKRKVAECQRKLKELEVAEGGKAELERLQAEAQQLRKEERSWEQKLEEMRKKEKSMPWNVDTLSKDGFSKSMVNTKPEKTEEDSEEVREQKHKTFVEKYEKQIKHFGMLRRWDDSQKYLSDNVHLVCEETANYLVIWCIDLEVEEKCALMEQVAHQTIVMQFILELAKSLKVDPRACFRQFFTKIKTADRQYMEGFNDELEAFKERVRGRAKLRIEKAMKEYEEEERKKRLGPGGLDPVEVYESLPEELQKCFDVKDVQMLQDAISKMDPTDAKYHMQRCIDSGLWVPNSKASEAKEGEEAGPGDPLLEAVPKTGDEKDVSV

cyclo-CLLFVY
Kd [1]: 124 nM

HSP90 (from UniProt P07900)
Kd [2]: 100 µM

HIF-1α (from UniProt Q16665)
Kd [3]: 7 nM

thymidylate synthase (from UniProt P04818)
Kd [4]: 200 nM
